TCR-Igg pos stain and percent of cells stained data for 1 substance are collected here from patent US20220275043A1.

Experiment [1] addresses single-chain SIINFEKL-H2Kb expressed on K562 cells (mouse). The experiment in a line: flow cytometry dot plot (APC-A against Pacific Blue-A) of K562 cells expressing single-chain SIINFEKL-H2Kb, stained with raw supernatant; number printed in the gate 'TCR-Igg pos stain' (same gate in the Negative ctl panel: 1.15).
For experiment [2] the target is unchanged. The experiment is described as follows: flow cytometry, purified OT1-TCR-Igg at 20 nM on K562 cells expressing single-chain SIINFEKL-H2Kb.

In turn, “OT1-TCR-Igg (OTI TCRα-LZL-mIgG HC + OTI TCRβ-LZR-mIgG LC, two separate plasmids)” returned a TCR-Igg pos stain in experiment [1] of 39.3. For the same substance, in experiment [2], the percent of cells stained at 20 nM turned out to be 100%.
